Data reported in US20040043378A1 (published 2004).

B1: bromodomain of P/CAF (residues 719-832 of SEQ ID NO:2) (other)
chain: SKEPRDPDQLYSTLKSILQQVKSHQSAWPFMEPVKRTEAPGYYEVIRFPMDLKTMSERLKNRYYVSKKLFMADLQRVFTNCKEYNAAESEYYKCANILEKFFFSKIKEAGLIDK
notes: also called P/CAF bromodomain; the bromodomain
B2: Tat K50R/K51R mutant protein, FLAG-tagged, expressed in cells (other)
chain: MEPVDPRLEPWKHPGSQPKTASNNCYCKRCCLHCQVCFTKKGLGISYGRRRRRQRRRAPQDSKTHQVSLSKQPASQPRGDPTGPKESKKKVERETETDPED
notes: also called Tat-RR; Tat double mutant containing K50R/K51R

Key:
[1] = molecular target: T1, Tat AcK28 peptide TNCYCK-AcK-CCFH (SEQ ID NO:58) (Human Immunodeficiency Virus type 1); assay: NMR 2D 1H-15N HSQC titration; 'binds weakly'
T1 construct: Synthetic peptide

[2] = molecular target: Tat AcK50 peptide SYGR-AcK-[…] (SEQ ID NO:50) (Human Immunodeficiency Virus type 1); assay: NMR 2D 1H-15N HSQC titration; 'interacts strongly'
[3] = molecular target: T2, P/CAF (p300/CBP-associated factor), HA-tagged, expressed in cells (human, UniProt Q92831 1-832); assay: interaction in cells, western blot (FLAG-Tat, HA-P/CAF)
T2 construct: also called HA-P/CAF

| Binder | Kd [1] | Kd [2] | binding result [3] |
| --- | --- | --- | --- |
| B1 | < 300 µM | ~20 µM |  |
| B2 |  |  | no binding |
